Reference: US10584350B2, “Structurally modified COI1” (Board of Trustees of Michigan State University, priority 2016, dated 2020)
Residue numbers refer to the chain shown, from its start. Names may count otherwise.

Assays:
COI1-JAZ9 interaction [1] = conditions: Y2H; Thines et al., Melotto et al.; cited from earlier work
COI1-JAZ9 interaction [2] = experiment: Y2H assays on plates for protein-protein interaction; format: cell-based, Arabidopsis; conditions: 10 μM COR, yeast
Experimental: (§1) Yeast EGY48 strain carrying the p8Op:LacZ reporter plasmid was co-transformed with pGilda:COI1 (or COI1 mutants) and pB42AD:JAZ9 (or other JAZs) (Clontech). Colonies were selected on SD minimal plates (BD Biosciences) supplemented with the—uracil (U)/-tryptophan (W)/-histidine (H) amino acid drop out solution (Clontech). Yeast colonies were cultured overnight in liquid SD-UWH medium, harvested, washed twice in sterile water, and the absorbance (OD600) of the cultures was adjusted to 0.2 in liquid SD galactose/raffinose-UWH medium (BD Biosciences).
For Y2H assays on plates, 10-μL culture was spotted onto SD galactose/raffinose-UWH plates with 80 μg/mL X-gal and 10 μM COR (Sigma-Aldrich). Blue color indicated protein-protein interactions after 5-7 days of incubation at 30° C.

COI1-JAZ9 interaction [3] = experiment: Quantitative liquid Y2H assays (Beta-Glo, RLU); format: cell-based, Arabidopsis; conditions: liquid Y2H, yeast; for COR-dependent COI1-JAZ9 interaction: 1 μM COR; for JA-Ile-dependent COI1-JAZ9 interaction: 10 or 30 μM JA-Ile
Experimental: as §1
For liquid Y2H assays, cultures were supplemented with designated concentrations of JA-Ile (10 or 30 μM), COR (1 μM), or DMSO. After 16-h incubation with ligands, the liquid cultures were processed through the Beta-Glo Assay system (Promega) for detecting the β-galactosidase activity. […] Protein expression in yeast was detected using anti-LexA antibody (1:5,000; Upstate Biotechnology) for detection of COI1 expression from pGilda vector and anti-HA (1:5,000; Roche Life Science) antibody for detection of JAZ9 expression in pB42AD vector.

CC/C=C\C[C@H]1C(=O)CC[C@@H]1CC(=O)O [JA, jasmonic acid]
activity in yeast (COI1-JAZ9 interaction [1]): not active

B1: R409A: COI1 alanine substitution mutant at R409 (protein)
chain: MEDPDIKRCKLSCVATVDDVIEQVMTYITDPKDRDSASLVCRRWFKIDSETREHVTMALCYTATPDRLSRRFPNLRSLKLKGKPRAAMFNLIPENWGGYVTPWVTEISNNLRQLKSVHFRRMIVSDLDLDRLAKARADDLETLKLDKCSGFTTDGLLSIVTHCRKIKTLLMEESSFSEKDGKWLHELAQHNTSLEVLNFYMTEFAKISPKDLETIARNCRSLVSVKVGDFEILELVGFFKAAANLEEFCGGSLNEDIGMPEKYMNLVFPRKLCRLGLSYMGPNEMPILFPFAAQIRKLDLLYALLETEDHCTLIQKCPNLEVLETRNVIGDRGLEVLAQYCKQLKRLRIERGADEQGMEDEEGLVSQRGLIALAQGCQELEYMAVYVSDITNESLESIGTYLKNLCDFALVLLDREERITDLPLDNGVRSLLIGCKKLRRFAFYLRQGGLTDLGLSYIGQYSPNVRWMLLGYVGESDEGLMEFSRGCPNLQKLEMRGCCFSERAIAAAVTKLPSLRYLWVQGYRASMTGQDLMQMARPYWNIELIPSRRVPEVNQQGEIREMEHPAHILAYYSLAGQRTDCPTTVRVLKEPI
COR-dependent COI1-JAZ9 interaction (COI1-JAZ9 interaction [2]): reduced
COR-dependent COI1-JAZ9 interaction (COI1-JAZ9 interaction [3]): reduced
JA-Ile-dependent COI1-JAZ9 interaction (COI1-JAZ9 interaction [3]): reduced

B2: A384T: COI1 substitution mutant at A384 (protein)
chain: B1 chain with A384T, A409R
COR-dependent COI1-JAZ9 interaction (COI1-JAZ9 interaction [3]): completely disrupted
JA-Ile-dependent COI1-JAZ9 interaction (COI1-JAZ9 interaction [3]): completely disrupted

B3: COI1A86I: COI1 mutant, alanine 86 substituted with isoleucine (protein)
chain: B1 chain with A86I, A409R
modifications: left off: small tags and cut ends
notes: COI1 mutant, alanine 86 substituted with isoleucine
COR-dependent COI1-JAZ9 interaction (COI1-JAZ9 interaction [3]): reduced
JA-Ile-dependent COI1-JAZ9 interaction (COI1-JAZ9 interaction [3]): abolished

B4: R496A: COI1 alanine substitution mutant at R496 (protein)
chain: B1 chain with A409R, R496A
COR-dependent COI1-JAZ9 interaction (COI1-JAZ9 interaction [2]): reduced
differential effect on JA-Ile-dependent vs COR-dependent COI1-JAZ9 interaction (COI1-JAZ9 interaction [3]): affect JAIle-dependent interaction more than COR-dependent interaction

B5: A384L: COI1 substitution mutant at A384 (protein)
chain: B1 chain with A384L, A409R
COR-dependent COI1-JAZ9 interaction (COI1-JAZ9 interaction [3]): completely disrupted
JA-Ile-dependent COI1-JAZ9 interaction (COI1-JAZ9 interaction [3]): completely disrupted

B6: COI1A86V: COI1 mutant, alanine 86 substituted with valine (protein)
chain: B1 chain with A86V, A409R
modifications: left off: small tags and cut ends
notes: COI1 mutant, alanine 86 substituted with valine
COR-dependent COI1-JAZ9 interaction (COI1-JAZ9 interaction [3]): reduced
JA-Ile-dependent COI1-JAZ9 interaction (COI1-JAZ9 interaction [3]): abolished

B7: A384D: COI1 substitution mutant at A384 (protein)
chain: B1 chain with A384D, A409R
COR-dependent COI1-JAZ9 interaction (COI1-JAZ9 interaction [3]): completely disrupted
JA-Ile-dependent COI1-JAZ9 interaction (COI1-JAZ9 interaction [3]): completely disrupted

B8: A384C: COI1 substitution mutant at A384 (protein)
chain: B1 chain with A384C, A409R
COR-dependent COI1-JAZ9 interaction (COI1-JAZ9 interaction [3]): reduced
JA-Ile-dependent COI1-JAZ9 interaction (COI1-JAZ9 interaction [3]): reduced

B9: R85A: COI1 alanine substitution mutant at R85 (protein)
chain: B1 chain with R85A, A409R
differential effect on JA-Ile-dependent vs COR-dependent COI1-JAZ9 interaction (COI1-JAZ9 interaction [3]): affect JAIle-dependent interaction more than COR-dependent interaction

B10: A384G: COI1 substitution mutant at A384 (protein)
chain: B1 chain with A384G, A409R
COR-dependent COI1-JAZ9 interaction (COI1-JAZ9 interaction [3]): completely disrupted
JA-Ile-dependent COI1-JAZ9 interaction (COI1-JAZ9 interaction [3]): completely disrupted

B11: A384N: COI1 substitution mutant at A384 (protein)
chain: B1 chain with A384N, A409R
COR-dependent COI1-JAZ9 interaction (COI1-JAZ9 interaction [3]): completely disrupted
JA-Ile-dependent COI1-JAZ9 interaction (COI1-JAZ9 interaction [3]): completely disrupted

B12: COI1A384S: COI1 mutant, alanine 384 substituted with serine (protein)
chain: B1 chain with A384S, A409R
modifications: left off: small tags and cut ends
notes: COI1 mutant, alanine 384 substituted with serine
JA-Ile-dependent COI1-JAZ9 interaction (COI1-JAZ9 interaction [3]): reduced

B13: A384P: COI1 substitution mutant at A384 (protein)
chain: B1 chain with A384P, A409R
COR-dependent COI1-JAZ9 interaction (COI1-JAZ9 interaction [3]): completely disrupted
JA-Ile-dependent COI1-JAZ9 interaction (COI1-JAZ9 interaction [3]): completely disrupted

B14: COI1A384I: COI1 mutant, alanine 384 substituted with isoleucine (protein)
chain: B1 chain with A384I, A409R
modifications: left off: small tags and cut ends
notes: COI1 mutant, alanine 384 substituted with isoleucine
COR-dependent COI1-JAZ9 interaction (COI1-JAZ9 interaction [3]): disrupted
JA-Ile-dependent COI1-JAZ9 interaction (COI1-JAZ9 interaction [3]): disrupted
